Measurements: patent publication US20140242093A1, “METHODS AND COMPOSITIONS FOR MODULATING THE INNATE IMMUNE RESPONSE AND/OR MYOGENESIS IN A MAMMALIAN SUBJECT” (FRED HUTCHINSON CANCER RESEARCH CENTER, priority 2011, published 2014)

Tested on: control human primary myoblasts
Experiment: Expression microarray of primary myoblasts transduced with lentivirus carrying DUX4-fl, DUX4-s or GFP
Protocol: Primary human myoblasts were collected and cultured as previously described (Snider et al., 2010). Primary myoblasts were maintained at or below 70% confluency for proliferation. For differentiation, cells were allowed to reach 95-100% confluency in growth medium. Once confluency was reached, the cells were changed to differentiation medium (F10 media supplemented with 1% horse serum, 10 μg/mL insulin, and 10 μg/mL transferrin, penicillin/streptomycin) and maintained for 4 days. Human RD cells were grown in DMEM in 10% bovine calf serum (Hyclone) and penicillin/streptomycin. The primary myoblasts were transduced with lentivirus carrying DUX-fl, DUX4- or GFP (MOI=15).
Expression microarrays were performed on the transduced cells at 24 hours after transduction as follows. […] Samples were analyzed by Illumina Human Whole Genome microarrays. Probe intensities were corrected, normalized, and summarized by the Lumi package of Bioconductor (Du et al., 2008). Differentially expressed genes were identified by the LIMMA package of Bioconductor (Wettenhall and Smyth, 2004). Gene set enrichment analysis (GSEA) was performed using the Bioconductor GOstats package (Falcon and Gentleman, 2007).

B1: DUX4-s: short splice form of DUX4 (SEQ ID NO:112), keeps the double-homeobox domains, lacks the C-terminal activation domain (protein, listed as Homo sapiens)
chain: MALPTPSDSTLPAEARGRGRRRRLVWTPSQSEALRACFERNPYPGIATRERLAQAIGIPEPRVQIWFQNERSRQLRQHRRESRPWPGRRGPPEGRRKRTAVTGSQTALLLRAFEKDRFPGIAAREELARETGLPESRIQIWFQNRRARHPGQGGRAPAQV
B1 was tested, and the “fc of MGLL (expression array)” value (Refseq NM_007283.5) was −0.003305, the STAT1 expression fc (Refseq NM_007315.2, cultured human skeletal muscle) was 0.8235 and the “fc of LGALS9 (expression array)” value (Refseq NM_009587.2) was 1.706. The FRAT2 expression fc (Refseq NM_012083.2) was −0.05118, the “fc of CDC42EP4 (expression array)” value (Refseq NM_012121.4) was 0.06633 and the CHORDC1 expression fc (Refseq NM_012124.1) was 0.1261. The CLDN14 expression fc (Refseq NM_012130.2) was −0.3006, the TFIP11 expression fc (Refseq NM_012143.2) was 0.1124 and the SIRT1 expression fc (Refseq NM_012238.3) was 0.2071. The KCNH4 expression fc (Refseq NM_012285.1) was −0.07365, the BAMBI expression fc (Refseq NM_012342.2) was 0.1101 and the “fc of TINF2 (expression array)” value (Refseq NM_012461.1) was 0.3861. For the same molecule, the CD24 expression fc (Refseq NM_013230.2) was −0.3586, the ZNF214 expression fc (Refseq NM_013249.1) was 0.166 and the TBK1 fc (Refseq NM_013254.2) was 0.3572. The MYLIP expression fc (Refseq NM_013262.3) was −0.2969, the TRA2A expression fc (Refseq NM_013293.3) was −0.1095 and the “fc of EEF2K (expression array)” value (Refseq NM_013302.3) was −0.5322. For the same molecule, the SERTAD1 expression fc (Refseq NM_013376.3) was 0.41, the “fc of SLC25A24 (expression array)” value (Refseq NM_013386.3) was 1.103 and the “fc of CLIC4 (expression array)” value (Refseq NM_013943.1) was 1.228. For the same molecule, the BZW2 expression fc (Refseq NM_014038.1) was −0.4003, the LRP10 fc (Refseq NM_014045.3) was 0.4158 and the “fc of FAM156A (expression array)” value (Refseq NM_014138.3) was −0.1365. The SMARCAL1 fc (Refseq NM_014140.2) was 0.01669, the CCDC59 expression fc (Refseq NM_014167.2) was 0.2509 and the “fc of TDRD7 (expression array)” value (Refseq NM_014290.1) was 1.072. For the same molecule, the DDX58 expression fc (Refseq NM_014314.3, cultured human skeletal muscle) was 0.02114, the PDSS1 expression fc (Refseq NM_014317.3) was −0.07459 and the AMACR expression fc (Refseq NM_014324.4) was 0.08431. It also gave a PPP1R15A expression fc (Refseq NM_014330.2) of 0.5668, a TSPAN13 expression fc (Refseq NM_014399.3) of −0.1469 and an APOBEC3C fc (Refseq NM_014508.2) of 0.5827. For the same molecule, the EVC expression fc (Refseq NM_014556.2, cultured human skeletal muscle) was −0.3857, the SCHIP1 expression fc (Refseq NM_014575.2, cultured human skeletal muscle) was 0.06263 and the SLC40A1 expression fc (Refseq NM_014585.3) was −0.4239. It also gave a CDR2L fc (Refseq NM_014603.1) of −0.203, a TAX1BP3 fc (Refseq NM_014604.2) of −0.341 and a CTR9 expression fc (Refseq NM_014633.3) of −0.0216. The SLC25A44 expression fc (Refseq NM_014655.1) was −0.07654, the MTSS1 fc (Refseq NM_014751.4) was −0.4145 and the LBA1 fc (Refseq NM_014831.1) was 0.4958. It also gave a KIAA0020 expression fc (Refseq NM_014878.4) of 0.01783, an ABLIM3 fc (Refseq NM_014945.2) of 0.01495 and a WDR47 expression fc (Refseq NM_014969.4) of 0.1401. The ARC expression fc (Refseq NM_015193.3) was −0.188, the “fc of DENND5A (expression array)” value (Refseq NM_015213.2) was 0.07991 and the “fc of FEM1B (expression array)” value (Refseq NM_015322.3) was 1.026. For the same molecule, the “fc of PANX1 (expression array)” value (Refseq NM_015368.3) was 1.233, the “fc of AASDHPPT (expression array)” value (Refseq NM_015423.2) was −1.246 and the MTHFD1L fc (Refseq NM_015440.3) was 0.3955. It also gave a C2orf32 fc (Refseq NM_015463.1) of 0.07813, a PVRL3 expression fc (Refseq NM_015480.1) of 0.4473 and an NGDN expression fc (Refseq NM_015514.1) of 0.4088. The “fc of RRM2B (expression array)” value (Refseq NM_015713.3) was 0.6161, the MBD2 expression fc (Refseq NM_015832.3) was −0.07679 and the “fc of MBTPS2 (expression array)” value (Refseq NM_015884.1) was 1.035. For the same molecule, the ARS2 expression fc (Refseq NM_015908.4) was −0.2002, the GSTK1 fc (Refseq NM_015917.1) was 0.0593 and the NOP58 expression fc (Refseq NM_015934.3) was 0.2243. For the same molecule, the CRLF3 expression fc (Refseq NM_015986.2) was −0.1449, the “fc of TTC15 (expression array)” value (Refseq NM_016030.5) was −0.1193 and the ISOC1 expression fc (Refseq NM_016048.1) was −0.6187. For the same molecule, the MED31 expression fc (Refseq NM_016060.2) was 0.3123, the “fc of TRPV2 (expression array)” value (Refseq NM_016113.3) was 0.3116 and the CERCAM fc (Refseq NM_016174.3) was −0.1838. It also gave a DBR1 expression fc (Refseq NM_016216.2) of 0.2247, a POLR3K expression fc (Refseq NM_016310.2) of 0.05873 and an HERC5 expression fc (Refseq NM_016323.2, cultured human skeletal muscle) of 1.329. For the same molecule, the “fc of CENPF (expression array)” value (Refseq NM_016343.3) was −1.028, the CWC15 expression fc (Refseq NM_016403.3) was 0.09338 and the “fc of TMEM9 (expression array)” value (Refseq NM_016456.2) was −0.2052. The RAB6B expression fc (Refseq NM_016577.3) was 0.007069, the SLC15A3 expression fc (Refseq NM_016582.1, cultured human skeletal muscle) was 0.7755 and the FKBP11 fc (Refseq NM_016594.1) was 0.3006. It also gave an ARMCX1 fc (Refseq NM_016608.1) of −0.06031, a C8orf55 fc (Refseq NM_016647.2) of −0.387 and an HOXC13 fc (Refseq NM_017410.2) of 0.444. The USP18 expression fc (Refseq NM_017414.3, cultured human skeletal muscle) was 0.996, the PARP14 expression fc (Refseq NM_017554.1, cultured human skeletal muscle) was 0.5211 and the “fc of SLC43A3 (expression array)” value (Refseq NM_017611.2) was 0.4376. For the same molecule, the NOTCH1 fc (Refseq NM_017617.3) was −0.6695, the KIF21A expression fc (Refseq NM_017641.2) was 0.01529 and the “fc of AHI1 (expression array)” value (Refseq NM_017651.3) was −1.054. It also gave an SAMD9 expression fc (Refseq NM_017654.2, cultured human skeletal muscle) of 1.399, an FAM46C expression fc (Refseq NM_017709.3) of −0.1289 and an RETSAT expression fc (Refseq NM_017750.2, cultured human skeletal muscle) of −0.1731. For the same molecule, the LYAR expression fc (Refseq NM_017816.1) was 0.000875, the ZSCAN2 expression fc (Refseq NM_017894.4) was −0.1999 and the HERC6 expression fc (Refseq NM_017912.3, cultured human skeletal muscle) was 0.5237. It also gave a PID1 fc (Refseq NM_017933.3) of 0.314, a ZNHIT6 expression fc (Refseq NM_017953.2) of 0.3265 and a C14orf102 expression fc (Refseq NM_017970.2) of 0.1769. For the same molecule, the “fc of WIPI1 (expression array)” value (Refseq NM_017983.4) was 0.07989, the RNF31 fc (Refseq NM_017999.4) was 0.05142 and the FRMD4A fc (Refseq NM_018027.3) was −0.5453. The FAM90A1 expression fc (Refseq NM_018088.3) was 0.02937, the “fc of RBM23 (expression array)” value (Refseq NM_018107.4) was −0.07729 and the PNPO fc (Refseq NM_018129.2) was −0.02588. For the same molecule, the SEC61A2 expression fc (Refseq NM_018144.2) was 0.209, the NADSYN1 fc (Refseq NM_018161.4) was 0.1182 and the TMEM140 expression fc (Refseq NM_018295.2, cultured human skeletal muscle) was 1.003. The BRIX1 expression fc (Refseq NM_018321.3) was 0.2991, the DRAM1 fc (Refseq NM_018370.2) was −0.3649 and the LSG1 expression fc (Refseq NM_018385.1) was −0.06468. It also gave a TBC1D2 fc (Refseq NM_018421.2) of 0.2926, an RRN3 expression fc (Refseq NM_018427.3) of 0.1072 and a ZNF302 fc (Refseq NM_018443.2) of −0.01005. For the same molecule, the “fc of GLT8D1 (expression array)” value (Refseq NM_018446.2) was −0.2715, the BEX1 fc (Refseq NM_018476.3) was −0.2346 and the SLC35E3 fc (Refseq NM_018656.2) was 0.4619. The DEFB103B expression fc (Refseq NM_018661.3) was −0.03507, the “fc of SULF2 (expression array)” value (Refseq NM_018837.2) was −0.04817 and the PDE7B fc (Refseq NM_018945.3) was −0.5695. It also gave an NANS expression fc (Refseq NM_018946.2) of −0.006607, a POLR1B expression fc (Refseq NM_019014.3) of −0.1313 and a CCNJ expression fc (Refseq NM_019084.2) of 0.07916. For the same molecule, the “fc of HOXA5 (expression array)” value (Refseq NM_019102.2) was −0.1759, the PNO1 expression fc (Refseq NM_020143.2) was 0.2485 and the KTELC1 fc (Refseq NM_020231.3) was 0.1564. For the same molecule, the C1orf63 expression fc (Refseq NM_020317.3) was −0.139, the ZMIZ1 fc (Refseq NM_020338.2) was −0.03787 and the TRIM49 expression fc (Refseq NM_020358.2) was −0.01703. For the same molecule, the LYRM1 fc (Refseq NM_020424.2) was 0.01491, the SLC44A2 fc (Refseq NM_020428.2) was −0.3457 and the PCBP3 fc (Refseq NM_020528.1) was 0.2113. The NFKBIA expression fc (Refseq NM_020529.1, cultured human skeletal muscle) was 0.2751, the “fc of RCN3 (expression array)” value (Refseq NM_020650.2) was −0.2021 and the PELI1 expression fc (Refseq NM_020651.2) was 0.1483. For the same molecule, the “fc of FAM62B (expression array)” value (Refseq NM_020728.1) was −1.387, the HECW2 fc (Refseq NM_020760.1) was 0.06016 and the ZNF319 fc (Refseq NM_020807.1) was −0.08179. The OSBPL8 expression fc (Refseq NM_020841.4) was 1.055, the USP29 expression fc (Refseq NM_020903.2) was −0.09046 and the “fc of RNF213 (expression array)” value (Refseq NM_020914.3) was 0.6308. For the same molecule, the “fc of FAM160B1 (expression array)” value (Refseq NM_020940.3) was 0.6282, the “fc of IGDCC4 (expression array)” value (Refseq NM_020962.1) was −0.5216 and the RFPL1 expression fc (Refseq NM_021026.2) was 0.3402.
